According to article PMC5448812, “Distinct DNA-binding surfaces in the ATPase and linker domains of MutLγ determine its substrate specificities and exert separable functions in meiotic recombination and mismatch repair” (PLoS Genetics, 2017):

Substrate: Nc1ncnc2c1ncn2[C@@H]1O[C@H](COP(=O)(O)OP(=O)(O)OP(=O)(O)O)[C@@H](O)[C@H]1O
Assay: ATP hydrolysis, thin layer chromatography of [α-32P]-ADP
Type: biochemical, Saccharomyces cerevisiae
Conditions: 200 nM MutLγ, 25 mM Tris-HCl pH 7.5, 5 mM MgCl2, 1 mg/ml BSA, 30°C, no DNA, labelled compound as tracer (33 nM [α-32P]-ATP plus cold ATP), both subunits carry a GHKL ATPase domain, single apparent Km

B1: MutLγ (Mlh1-Mlh3) (Saccharomyces cerevisiae S288C) (protein)
chain 1: MSLRIKALDASVVNKIAAGEIIISPVNALKEMMENSIDANATMIDILVKEGGIKVLQITDNGSGINKADLPILCERFTTSKLQKFEDLSQIQTYGFRGEALASISHVARVTVTTKVKEDRCAWRVSYAEGKMLESPKPVAGKDGTTILVEDLFFNIPSRLRALRSHNDEYSKILDVVGRYAIHSKDIGFSCKKFGDSNYSLSVKPSYTVQDRIRTVFNKSVASNLITFHISKVEDLNLESVDGKVCNLNFISKKSISPIFFINNRLVTCDLLRRALNSVYSNYLPKGNRPFIYLGIVIDPAAVDVNVHPTKREVRFLSQDEIIEKIANQLHAELSAIDTSRTFKASSISTNKPESLIPFNDTIESDRNRKSLRQAQVVENSYTTANSQLRKAKRQENKLVRIDASQAKITSFLSSSQQFNFEGSSTKRQLSEPKVTNVSHSQEAEKLTLNESEQPRDANTINDNDLKDQPKKKQKLGDYKVPSIADDEKNALPISKDGYIRVPKERVNVNLTSIKKLREKVDDSIHRELTDIFANLNYVGVVDEERRLAAIQHDLKLFLIDYGSVCYELFYQIGLTDFANFGKINLQSTNVSDDIVLYNLLSEFDELNDDASKEKIISKIWDMSSMLNEYYSIELVNDGLDNDLKSVKLKSLPLLLKGYIPSLVKLPFFIYRLGKEVDWEDEQECLDGILREIALLYIPDMVPKVDTSDASLSEDEKAQFINRKEHISSLLEHVLFPCIKRRFLAPRHILKDVVEIANLPDLYKVFERC
chain 2: MSQHIRKLDSDVSERLKSQACTVSLASAVREIVQNSVDAHATTIDVMIDLPNLSFAVYDDGIGLTRSDLNILATQNYTSKIRKMNDLVTMKTYGYRGDALYSISNVSNLFVCSKKKDYNSAWMRKFPSKSVMLSENTILPIDPFWKICPWSRTKSGTVVIVEDMLYNLPVRRRILKEEPPFKTFNTIKADMLQILVMHPMISLNVQYTDKLRINTEVLFRSKNITEGLTKHQQMSQVLRNVFGAIIPPDMLKKVSLKFNEYQIEGIISKMPVGLKDLQFIYINGRRYADSAFQGYVDSLFQAQDFGEKGMSLLKTKSVGKPYRSHPVFILDVRCPQTIDDLLQDPAKKIVKPSHIRTIEPLIVKTIRSFLTFQGYLTPDKSDSSFEIVNCSQKTATLPDSRIQISKRNQVLNSKMKIARINSYIGKPAVNGCRINNSTINYEKIKNIRIDGQKSRLRNKLSSRPYDSGFTEDYDSIGKTITDFSISRSVLAKYEVINQVDKKFILIRCLDQSIHNCPLLVLVDQHACDERIRLEELFYSLLTEVVTGTFVARDLKDCCIEVDRTEADLFKHYQSEFKKWGIGYETIEGTMETSLLEIKTLPEMLTSKYNGDKDYLKMVLLQHAHDLKDFKKLPMDLSHFENYTSVDKLYWWKYSSCVPTVFHEILNSKACRSAVMFGDELTRQECIILISKLSRCHNPFECAHGRPSMVPIAELK
notes: full-length heterodimer (175 kDa), N-terminal 6xHis-2xFlag tag kept on Mlh1 (Mlh3 untagged), co-expressed from baculoviruses in Sf9 cells
Question: For B1, which Km is on record?
Answer: 64 ± 13 µM
